Our source for the response values is publication PMC9333989.

The labels stand for the following.
B1: mouse CD4, wild type [mouse] / Lck (Src kinase) [mouse (endogenous in 58α−β− T cell hybridoma)] (parent)
chain 1: KTLVLGKEGESAELPCESSQKKITVFTWKFSDQRKILGQHGKGVLIRGGSPSQFDRFDSKKGAWEKGSFPLIINKLKMEDSQTYICELENRKEEVELWVFKVTFSPGTSLLQGQSLTLTLDSNSKVSNPLTECKHKKGKVVSGSKVLSMSNLRVQDSDFWNCTVTLDQKKNWFGMTLSVLGFQSTAITAYKSEGESAEFSFPLNFAEENGWGELMWKAEKDSFFQPWISFSIKNKEVSVQKSTKDLKLQLKETLPLTLKIPQVSLQFAGSGNLTLTLDKGTLHQEVNLVVMKVAQLNNTLTCEVMGPTSPKMRLTLKQENQEARVSEEQKVVQVVAPETGLWQCLLSEGDKVKMDSRIQVLSRGVNQTVFLACVLGGSFGFLGFLGLCILCCVRCRHQQRQAARMSQIKRLLSEKKTCQCPHRMQKSHNLI
chain 2: MGCVCSSNPEDDWMENIDVCENCHYPIVPLDSKISLPIRNGSEVRDPLVTYEGSLPPASPLQDNLVIALHSYEPSHDGDLGFEKGEQLRILEQSGEWWKAQSLTTGQEGFIPFNFVAKANSLEPEPWFFKNLSRKDAERQLLAPGNTHGSFLIRESESTAGSFSLSVRDFDQNQGEVVKHYKIRNLDNGGFYISPRITFPGLHDLVRHYTNASDGLCTKLSRPCQTQKPQKPWWEDEWEVPRETLKLVERLGAGQFGEVWMGYYNGHTKVAVKSLKQGSMSPDAFLAEANLMKQLQHPRLVRLYAVVTQEPIYIITEYMENGSLVDFLKTPSGIKLNVNKLLDMAAQIAEGMAFIEEQNYIHRDLRAANILVSDTLSCKIADFGLARLIEDNEYTAREGAKFPIKWTAPEAINYGTFTIKSDVWSFGILLTEIVTHGRIPYPGMTNPEVIQNLERGYRMVRPDNCPEELYHLMMLCWKERPEDRPTFDYLRSVLDDFFTATEGQYQPQP

This assay covers variants of B1. The assay is described as follows: co-IP of Lck with CD4 from sucrose gradient fractions. The settings on record: with Lck (Src kinase) [mouse (endogenous in 58α−β− T cell hybridoma)], mean ± SEM of three independent experiments, read off a plot.
Where [1] appears, read: DRM fractions (center graph), parent: 2.6.
[2] abbreviates: DRM fractions (center graph), parent: 3.7.
Setting [3] is: DSM fractions (right graph), parent: 6.9.
Setting [4] is: DSM fractions (right graph), parent: 8.9.

For the variant chain 1 S406A S413A, the response under setting [1] worked out at 3.2 AUC. Consider chain 1 G377V G380L, for which the response runs as follows: under setting [2], 3.5 AUC; under setting [3], 6.4 AUC.

With chain 1 G377V G380L C392S C395S C418S C420S, the response under setting [2] was 0.85 AUC and the response under setting [3] was 1.2 AUC. For chain 1 C392S C395S the same measures were 2.1 AUC and 8.9 AUC.

Consider chain 1 S406D L411A L412A S413D, for which the response reads like this: under setting [1], 0.87 AUC; under setting [4], 6.3 AUC.

With chain 1 S406D S413D, the response is, setting by setting: under setting [1], 1.8 AUC; under setting [4], 8.4 AUC.
